Data on 1 molecule can be found in patent US20090098530A1 (CRUCELL HOLLAND B V, published 2009).

In this assay the target is T1, human angiotensin-converting enzyme 2 (ACE2 protein) expressed on stably transfected PER.C6 cells (human, UniProt Q9BYF1 18-805).
T1 construct: also called human ACE2 receptor; PER.C6-ACE2
Briefly: flow cytometry on ACE2-transfected PER.C6 clones.

T1 sequence (Q9BYF1 18-805 limits assumed): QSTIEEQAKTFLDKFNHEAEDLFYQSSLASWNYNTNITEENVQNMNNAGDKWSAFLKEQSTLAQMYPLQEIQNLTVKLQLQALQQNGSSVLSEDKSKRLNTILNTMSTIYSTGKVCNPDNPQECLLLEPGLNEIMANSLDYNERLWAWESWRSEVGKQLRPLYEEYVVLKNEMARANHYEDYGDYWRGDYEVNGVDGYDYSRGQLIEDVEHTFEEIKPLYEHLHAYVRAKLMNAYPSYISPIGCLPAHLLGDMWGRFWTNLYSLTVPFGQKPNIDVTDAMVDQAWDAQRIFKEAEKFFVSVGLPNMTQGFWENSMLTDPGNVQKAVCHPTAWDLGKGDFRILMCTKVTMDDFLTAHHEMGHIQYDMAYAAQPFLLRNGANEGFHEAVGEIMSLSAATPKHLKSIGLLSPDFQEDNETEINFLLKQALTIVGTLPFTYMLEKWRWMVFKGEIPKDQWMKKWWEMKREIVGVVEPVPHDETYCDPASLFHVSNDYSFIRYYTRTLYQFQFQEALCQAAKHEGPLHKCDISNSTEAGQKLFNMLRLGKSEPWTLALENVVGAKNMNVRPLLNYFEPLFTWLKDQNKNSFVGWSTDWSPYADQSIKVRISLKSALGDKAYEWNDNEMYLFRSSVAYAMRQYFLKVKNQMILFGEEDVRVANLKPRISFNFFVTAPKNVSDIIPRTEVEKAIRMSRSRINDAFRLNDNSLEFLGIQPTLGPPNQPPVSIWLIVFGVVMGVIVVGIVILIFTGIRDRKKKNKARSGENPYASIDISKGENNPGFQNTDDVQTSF

B1: wild-type SARS-CoV Frankfurt 1 S318-510 fragment, myc/His-tagged (ligand)
chain: not shown
As for B1, the binding result is on record as “binds”.
